T1: Human CD3eg linker (human)
T1 construct: Single-chain construct; also called recombinant human CD3
T1 chain: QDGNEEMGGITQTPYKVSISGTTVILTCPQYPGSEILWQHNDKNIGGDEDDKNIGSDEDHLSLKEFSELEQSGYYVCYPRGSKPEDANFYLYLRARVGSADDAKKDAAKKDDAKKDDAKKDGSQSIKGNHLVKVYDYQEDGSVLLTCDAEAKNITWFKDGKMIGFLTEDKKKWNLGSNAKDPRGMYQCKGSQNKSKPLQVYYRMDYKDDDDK

B1: H183/L072 VL V27cH (antibody, name in Kabat numbering, V domains shown)
VH: QVQLVESGGGLVQPGRSLRLSCAASGFTFSNAWMHWVRQAPGKGLEWVAQIKDKGNAYAAYYAPSVKGRFTISRDDSKNSIYLQMNSLKTEDTAVYYCHYVHYASASTVLPAFGVDAWGQGTTVTVSS
VL: DIVMTQSPLSLPVTPGEPASISCQASQELHHMNRNTYLHWYQQKPGQAPRLLIYKVSNRFPGVPDRFSGSGSGTDFTLKISRVEAEDVGVYYCAQGTSVPFTFGQGTKLEIK
B2: H183/L072 VL V51E (antibody, name in Kabat numbering, V domains shown)
VH: QVQLVESGGGLVQPGRSLRLSCAASGFTFSNAWMHWVRQAPGKGLEWVAQIKDKGNAYAAYYAPSVKGRFTISRDDSKNSIYLQMNSLKTEDTAVYYCHYVHYASASTVLPAFGVDAWGQGTTVTVSS
VL: DIVMTQSPLSLPVTPGEPASISCQASQELVHMNRNTYLHWYQQKPGQAPRLLIYKESNRFPGVPDRFSGSGSGTDFTLKISRVEAEDVGVYYCAQGTSVPFTFGQGTKLEIK
B3: H183/L072 VL V27cS (antibody, name in Kabat numbering, V domains shown)
VH: QVQLVESGGGLVQPGRSLRLSCAASGFTFSNAWMHWVRQAPGKGLEWVAQIKDKGNAYAAYYAPSVKGRFTISRDDSKNSIYLQMNSLKTEDTAVYYCHYVHYASASTVLPAFGVDAWGQGTTVTVSS
VL: DIVMTQSPLSLPVTPGEPASISCQASQELSHMNRNTYLHWYQQKPGQAPRLLIYKVSNRFPGVPDRFSGSGSGTDFTLKISRVEAEDVGVYYCAQGTSVPFTFGQGTKLEIK
B4: H183/L072 VL V51H (antibody, name in Kabat numbering, V domains shown)
VH: QVQLVESGGGLVQPGRSLRLSCAASGFTFSNAWMHWVRQAPGKGLEWVAQIKDKGNAYAAYYAPSVKGRFTISRDDSKNSIYLQMNSLKTEDTAVYYCHYVHYASASTVLPAFGVDAWGQGTTVTVSS
VL: DIVMTQSPLSLPVTPGEPASISCQASQELVHMNRNTYLHWYQQKPGQAPRLLIYKHSNRFPGVPDRFSGSGSGTDFTLKISRVEAEDVGVYYCAQGTSVPFTFGQGTKLEIK
B5: H183/L072 VL V27cY (antibody, name in Kabat numbering, V domains shown)
VH: QVQLVESGGGLVQPGRSLRLSCAASGFTFSNAWMHWVRQAPGKGLEWVAQIKDKGNAYAAYYAPSVKGRFTISRDDSKNSIYLQMNSLKTEDTAVYYCHYVHYASASTVLPAFGVDAWGQGTTVTVSS
VL: DIVMTQSPLSLPVTPGEPASISCQASQELYHMNRNTYLHWYQQKPGQAPRLLIYKVSNRFPGVPDRFSGSGSGTDFTLKISRVEAEDVGVYYCAQGTSVPFTFGQGTKLEIK
B6: H183/L072 VL V51I (antibody, name in Kabat numbering, V domains shown)
VH: QVQLVESGGGLVQPGRSLRLSCAASGFTFSNAWMHWVRQAPGKGLEWVAQIKDKGNAYAAYYAPSVKGRFTISRDDSKNSIYLQMNSLKTEDTAVYYCHYVHYASASTVLPAFGVDAWGQGTTVTVSS
VL: DIVMTQSPLSLPVTPGEPASISCQASQELVHMNRNTYLHWYQQKPGQAPRLLIYKISNRFPGVPDRFSGSGSGTDFTLKISRVEAEDVGVYYCAQGTSVPFTFGQGTKLEIK
B7: H183/L072 VL V51K (antibody, name in Kabat numbering, V domains shown)
VH: QVQLVESGGGLVQPGRSLRLSCAASGFTFSNAWMHWVRQAPGKGLEWVAQIKDKGNAYAAYYAPSVKGRFTISRDDSKNSIYLQMNSLKTEDTAVYYCHYVHYASASTVLPAFGVDAWGQGTTVTVSS
VL: DIVMTQSPLSLPVTPGEPASISCQASQELVHMNRNTYLHWYQQKPGQAPRLLIYKKSNRFPGVPDRFSGSGSGTDFTLKISRVEAEDVGVYYCAQGTSVPFTFGQGTKLEIK
B8: H183/L072 VL V27cT (antibody, name in Kabat numbering, V domains shown)
VH: QVQLVESGGGLVQPGRSLRLSCAASGFTFSNAWMHWVRQAPGKGLEWVAQIKDKGNAYAAYYAPSVKGRFTISRDDSKNSIYLQMNSLKTEDTAVYYCHYVHYASASTVLPAFGVDAWGQGTTVTVSS
VL: DIVMTQSPLSLPVTPGEPASISCQASQELTHMNRNTYLHWYQQKPGQAPRLLIYKVSNRFPGVPDRFSGSGSGTDFTLKISRVEAEDVGVYYCAQGTSVPFTFGQGTKLEIK
B9: H183/L072 VL V27cM (antibody, name in Kabat numbering, V domains shown)
VH: QVQLVESGGGLVQPGRSLRLSCAASGFTFSNAWMHWVRQAPGKGLEWVAQIKDKGNAYAAYYAPSVKGRFTISRDDSKNSIYLQMNSLKTEDTAVYYCHYVHYASASTVLPAFGVDAWGQGTTVTVSS
VL: DIVMTQSPLSLPVTPGEPASISCQASQELMHMNRNTYLHWYQQKPGQAPRLLIYKVSNRFPGVPDRFSGSGSGTDFTLKISRVEAEDVGVYYCAQGTSVPFTFGQGTKLEIK
B10: H183/L072 VL V51D (antibody, name in Kabat numbering, V domains shown)
VH: QVQLVESGGGLVQPGRSLRLSCAASGFTFSNAWMHWVRQAPGKGLEWVAQIKDKGNAYAAYYAPSVKGRFTISRDDSKNSIYLQMNSLKTEDTAVYYCHYVHYASASTVLPAFGVDAWGQGTTVTVSS
VL: DIVMTQSPLSLPVTPGEPASISCQASQELVHMNRNTYLHWYQQKPGQAPRLLIYKDSNRFPGVPDRFSGSGSGTDFTLKISRVEAEDVGVYYCAQGTSVPFTFGQGTKLEIK
B11: H183/L072 VL V27cK (antibody, name in Kabat numbering, V domains shown)
VH: QVQLVESGGGLVQPGRSLRLSCAASGFTFSNAWMHWVRQAPGKGLEWVAQIKDKGNAYAAYYAPSVKGRFTISRDDSKNSIYLQMNSLKTEDTAVYYCHYVHYASASTVLPAFGVDAWGQGTTVTVSS
VL: DIVMTQSPLSLPVTPGEPASISCQASQELKHMNRNTYLHWYQQKPGQAPRLLIYKVSNRFPGVPDRFSGSGSGTDFTLKISRVEAEDVGVYYCAQGTSVPFTFGQGTKLEIK
B12: H183/L072 VL V27cQ (antibody, name in Kabat numbering, V domains shown)
VH: QVQLVESGGGLVQPGRSLRLSCAASGFTFSNAWMHWVRQAPGKGLEWVAQIKDKGNAYAAYYAPSVKGRFTISRDDSKNSIYLQMNSLKTEDTAVYYCHYVHYASASTVLPAFGVDAWGQGTTVTVSS
VL: DIVMTQSPLSLPVTPGEPASISCQASQELQHMNRNTYLHWYQQKPGQAPRLLIYKVSNRFPGVPDRFSGSGSGTDFTLKISRVEAEDVGVYYCAQGTSVPFTFGQGTKLEIK
B13: H183/L072 VL V51L (antibody, name in Kabat numbering, V domains shown)
VH: QVQLVESGGGLVQPGRSLRLSCAASGFTFSNAWMHWVRQAPGKGLEWVAQIKDKGNAYAAYYAPSVKGRFTISRDDSKNSIYLQMNSLKTEDTAVYYCHYVHYASASTVLPAFGVDAWGQGTTVTVSS
VL: DIVMTQSPLSLPVTPGEPASISCQASQELVHMNRNTYLHWYQQKPGQAPRLLIYKLSNRFPGVPDRFSGSGSGTDFTLKISRVEAEDVGVYYCAQGTSVPFTFGQGTKLEIK
B14: H183/L072 VL V51G (antibody, name in Kabat numbering, V domains shown)
VH: QVQLVESGGGLVQPGRSLRLSCAASGFTFSNAWMHWVRQAPGKGLEWVAQIKDKGNAYAAYYAPSVKGRFTISRDDSKNSIYLQMNSLKTEDTAVYYCHYVHYASASTVLPAFGVDAWGQGTTVTVSS
VL: DIVMTQSPLSLPVTPGEPASISCQASQELVHMNRNTYLHWYQQKPGQAPRLLIYKGSNRFPGVPDRFSGSGSGTDFTLKISRVEAEDVGVYYCAQGTSVPFTFGQGTKLEIK
B15: H183/L072 VL V27cR (antibody, name in Kabat numbering, V domains shown)
VH: QVQLVESGGGLVQPGRSLRLSCAASGFTFSNAWMHWVRQAPGKGLEWVAQIKDKGNAYAAYYAPSVKGRFTISRDDSKNSIYLQMNSLKTEDTAVYYCHYVHYASASTVLPAFGVDAWGQGTTVTVSS
VL: DIVMTQSPLSLPVTPGEPASISCQASQELRHMNRNTYLHWYQQKPGQAPRLLIYKVSNRFPGVPDRFSGSGSGTDFTLKISRVEAEDVGVYYCAQGTSVPFTFGQGTKLEIK
B16: H183/L072 VL V27cW (antibody, name in Kabat numbering, V domains shown)
VH: QVQLVESGGGLVQPGRSLRLSCAASGFTFSNAWMHWVRQAPGKGLEWVAQIKDKGNAYAAYYAPSVKGRFTISRDDSKNSIYLQMNSLKTEDTAVYYCHYVHYASASTVLPAFGVDAWGQGTTVTVSS
VL: DIVMTQSPLSLPVTPGEPASISCQASQELWHMNRNTYLHWYQQKPGQAPRLLIYKVSNRFPGVPDRFSGSGSGTDFTLKISRVEAEDVGVYYCAQGTSVPFTFGQGTKLEIK
B17: H183/L072 VL V51A (antibody, name in Kabat numbering, V domains shown)
VH: QVQLVESGGGLVQPGRSLRLSCAASGFTFSNAWMHWVRQAPGKGLEWVAQIKDKGNAYAAYYAPSVKGRFTISRDDSKNSIYLQMNSLKTEDTAVYYCHYVHYASASTVLPAFGVDAWGQGTTVTVSS
VL: DIVMTQSPLSLPVTPGEPASISCQASQELVHMNRNTYLHWYQQKPGQAPRLLIYKASNRFPGVPDRFSGSGSGTDFTLKISRVEAEDVGVYYCAQGTSVPFTFGQGTKLEIK
B18: H183/L072 VL V27cN (antibody, name in Kabat numbering, V domains shown)
VH: QVQLVESGGGLVQPGRSLRLSCAASGFTFSNAWMHWVRQAPGKGLEWVAQIKDKGNAYAAYYAPSVKGRFTISRDDSKNSIYLQMNSLKTEDTAVYYCHYVHYASASTVLPAFGVDAWGQGTTVTVSS
VL: DIVMTQSPLSLPVTPGEPASISCQASQELNHMNRNTYLHWYQQKPGQAPRLLIYKVSNRFPGVPDRFSGSGSGTDFTLKISRVEAEDVGVYYCAQGTSVPFTFGQGTKLEIK
B19: H183/L072 VL V27cI (antibody, name in Kabat numbering, V domains shown)
VH: QVQLVESGGGLVQPGRSLRLSCAASGFTFSNAWMHWVRQAPGKGLEWVAQIKDKGNAYAAYYAPSVKGRFTISRDDSKNSIYLQMNSLKTEDTAVYYCHYVHYASASTVLPAFGVDAWGQGTTVTVSS
VL: DIVMTQSPLSLPVTPGEPASISCQASQELIHMNRNTYLHWYQQKPGQAPRLLIYKVSNRFPGVPDRFSGSGSGTDFTLKISRVEAEDVGVYYCAQGTSVPFTFGQGTKLEIK
B20: H183/L072 VL V27cL (antibody, name in Kabat numbering, V domains shown)
VH: QVQLVESGGGLVQPGRSLRLSCAASGFTFSNAWMHWVRQAPGKGLEWVAQIKDKGNAYAAYYAPSVKGRFTISRDDSKNSIYLQMNSLKTEDTAVYYCHYVHYASASTVLPAFGVDAWGQGTTVTVSS
VL: DIVMTQSPLSLPVTPGEPASISCQASQELLHMNRNTYLHWYQQKPGQAPRLLIYKVSNRFPGVPDRFSGSGSGTDFTLKISRVEAEDVGVYYCAQGTSVPFTFGQGTKLEIK

The test concerns the target T1, Human CD3eg linker. Put plainly: SPR; fold vs parent H183/L072. For orientation: In SPR one partner is held on a chip, and binding of the other changes the refractive index at the surface.
Consider B1, for which the “fold change of affinity” value stood at 0.3 fold.

With B2, the “fold change of affinity” value was 0.4 fold.

For B3, the “fold change of affinity” value amounted to 0 fold.

B4: the “fold change of affinity” value is 0.2 fold.

As to B5, the “fold change of affinity” value came to 0.5 fold.

B6: the “fold change of affinity” value was determined as 1.4 fold.

B7: the “fold change of affinity” value was determined as 0.8 fold.

With B8, the “fold change of affinity” value was 0.8 fold.

B9: the “fold change of affinity” value was 1.1 fold.

As to B10, the “fold change of affinity” value was 0 fold.

For the molecule B11, the “fold change of affinity” value worked out at 1.1 fold.

As for B12, the “fold change of affinity” value was 1 fold.

Take B13: the “fold change of affinity” value came out at 0.6 fold.

Regarding B14, the “fold change of affinity” value was 0.4 fold.

On to B15, for which the “fold change of affinity” value is 1.2 fold.

Turning to B16, the “fold change of affinity” value turned out to be 0.3 fold.

Consider B17, for which the “fold change of affinity” value was found to be 0.6 fold.

On to B18, for which the “fold change of affinity” value turned out to be 0.3 fold.

Regarding B19, the “fold change of affinity” value came to 1 fold.

In the case of B20, the “fold change of affinity” value stood at 0.8 fold.

The record behind these values is patent US20210388087A1 (Chugai, published 2021).
